According to US20160264649A1:

Key:
Experiment in all cases: cell-based or functional assay
[1] = target: HIV-1 Env of isolate 93TH305 (subtype B) (HIV-1)
[2] = target: HIV-1 Env of isolate 97ZA012 (subtype C) (HIV-1)
[3] = target: HIV-1 Env of isolate 92 BR 020 (subtype B) (HIV-1)
[4] = target: HIV-1 Env of isolate MG RM-C-020 (subtype C) (HIV-1)
[5] = target: HIV-1 Env of isolate CAAN.A2 (subtype B) (HIV-1)
[6] = target: HIV-1 Env of isolate APV_13 (subtype B) (HIV-1)
[7] = target: HIV-1 Env of isolate 6535.3 (subtype B) (HIV-1)
[8] = target: HIV-1 Env of isolate 93MW959 (subtype C) (HIV-1)
[9] = target: HIV-1 Env of isolate MG RM-C-019 (subtype C) (HIV-1)
[10] = target: HIV-1 Env of isolate PVO.4 (subtype B) (HIV-1)
[11] = target: HIV-1 Env of isolate TRJ04551.58 (subtype B) (HIV-1)
[12] = target: HIV-1 Env of isolate SF162 (subtype B) (HIV-1) (UniProt P19550)
[13] = target: HIV-1 Env of isolate MGRM-Chronic-B-003 (subtype B) (HIV-1)
[14] = target: HIV-1 Env of isolate MG RM-C-028 (subtype C) (HIV-1)
[15] = target: HIV-1 Env of isolate SC422661.8 (subtype B) (HIV-1)
[16] = target: HIV-1 Env of isolate APV_17 (subtype B) (HIV-1)
[17] = target: HIV-1 Env of isolate MGRM-Chronic-B-018 (subtype B) (HIV-1)
[18] = target: HIV-1 Env of isolate MGRM-Chronic-B-010 (subtype B) (HIV-1)
[19] = target: HIV-1 Env of isolate MG RM-C-026 (subtype C) (HIV-1)
[20] = target: HIV-1 Env of isolate NL43 (subtype B) (HIV-1)
[21] = target: HIV-1 Env of isolate 93IN905 (subtype C) (HIV-1)
[22] = target: HIV-1 Env of isolate MGRM-Chronic-B-017 (subtype B) (HIV-1)
[23] = target: HIV-1 Env of isolate THR0.18 (subtype B) (HIV-1)
[24] = target: HIV-1 Env of isolate APV_6 (subtype B) (HIV-1)
[25] = target: HIV-1 Env of isolate MGRM-Chronic-B-011 (subtype B) (HIV-1)
[26] = target: HIV-1 Env of isolate MGRM-Chronic-B-012 (subtype B) (HIV-1)
[27] = target: HIV-1 Env of isolate MG RM-C-023 (subtype C) (HIV-1)
[28] = target: HIV-1 Env of isolate MGRM-Chronic-B-008 (subtype B) (HIV-1)
[29] = target: HIV-1 Env of isolate MGRM-Chronic-B-001 (subtype B) (HIV-1)
[30] = target: HIV-1 Env of isolate QH0692.42 (subtype B) (HIV-1)
[31] = target: HIV-1 92RW008 Env (HIV-1)
[32] = target: HIV-1 Env of isolate MGRM-Chronic-B-023 (subtype B) (HIV-1)
[33] = target: HIV-1 Env of isolate MGRM-Chronic-B-024 (subtype B) (HIV-1)
[34] = target: HIV-1 Env of isolate MG RM-C-022 (subtype C) (HIV-1)
[35] = target: HIV-1 Env of isolate MGRM-Chronic-B-004 (subtype B) (HIV-1)
[36] = target: HIV-1 Env of isolate MGRM-Chronic-B-020 (subtype B) (HIV-1)
[37] = target: HIV-1 Env of isolate JRFL (subtype B) (HIV-1)
[38] = target: HIV-1 Env of isolate MG RM-C-025 (subtype C) (HIV-1)
[39] = target: HIV-1 Env of isolate TRO.11 (subtype B) (HIV-1)
[40] = target: HIV-1 Env of isolate MG RM-C-027 (subtype C) (HIV-1)
[41] = target: HIV-1 Env of isolate MGRM-Chronic-B-002 (subtype B) (HIV-1)
[42] = target: HIV-1 Env of isolate MG RM-C-024 (subtype C) (HIV-1)
[43] = target: HIV-1 Env of isolate JRCSF (subtype B) (HIV-1) (UniProt P20871)
[44] = target: HIV-1 Env of isolate 98IN022 (subtype C) (HIV-1)
[45] = target: HIV-1 Env of isolate VLGCB3 (subtype B) (HIV-1)

Sequence of 4980_N08 (PGT-143) (antibody) (VH): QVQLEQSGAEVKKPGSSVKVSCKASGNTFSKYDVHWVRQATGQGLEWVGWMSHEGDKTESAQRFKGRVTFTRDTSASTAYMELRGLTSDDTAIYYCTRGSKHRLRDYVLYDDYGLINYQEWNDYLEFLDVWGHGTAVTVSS
Sequence of 4980_N08 (PGT-143) (antibody) (VL): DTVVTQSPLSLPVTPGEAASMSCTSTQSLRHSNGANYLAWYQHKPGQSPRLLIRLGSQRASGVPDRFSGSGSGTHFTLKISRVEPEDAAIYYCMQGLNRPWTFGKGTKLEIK
Sequence of 4970_K22 (PGT-144) (antibody) (VH): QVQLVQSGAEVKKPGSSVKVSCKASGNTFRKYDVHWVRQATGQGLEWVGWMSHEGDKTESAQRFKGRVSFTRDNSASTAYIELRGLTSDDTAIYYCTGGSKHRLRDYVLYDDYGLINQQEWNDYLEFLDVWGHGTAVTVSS
Sequence of 4970_K22 (PGT-144) (antibody) (VL): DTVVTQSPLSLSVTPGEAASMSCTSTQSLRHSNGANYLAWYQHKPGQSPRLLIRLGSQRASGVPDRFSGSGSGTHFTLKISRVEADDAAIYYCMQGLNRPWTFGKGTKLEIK

4970_K22 (PGT-144) (antibody)
IC50 [1]: > 50 µg/mL | IC50 [2]: > 50 µg/mL | IC50 [3]: 44 µg/mL | IC50 [4]: 1.29 µg/mL | IC50 [5]: > 50 µg/mL | IC50 [6]: > 50 µg/mL | IC50 [7]: > 50 µg/mL | IC50 [8]: 0.332 µg/mL | IC50 [9]: 0.513 µg/mL | IC50 [10]: 0.535 µg/mL | IC50 [11]: > 50 µg/mL | IC50 [12]: > 50 µg/mL | IC50 [13]: 7.41 µg/mL | IC50 [14]: > 50 µg/mL | IC50 [15]: > 50 µg/mL | IC50 [16]: 10.3 µg/mL | IC50 [17]: 2.4 µg/mL | IC50 [18]: > 50 µg/mL | IC50 [19]: > 50 µg/mL | IC50 [20]: > 50 µg/mL | IC50 [21]: 0.132 µg/mL | IC50 [22]: 0.712 µg/mL | IC50 [23]: 0.029 µg/mL | IC50 [24]: > 50 µg/mL | IC50 [25]: 5.64 µg/mL | IC50 [26]: > 50 µg/mL | IC50 [27]: 0.38 µg/mL | IC50 [28]: > 50 µg/mL | IC50 [29]: > 50 µg/mL | IC50 [30]: > 50 µg/mL | IC50 [31]: > 50 µg/mL | IC50 [32]: > 50 µg/mL | IC50 [33]: 0.04 µg/mL | IC50 [34]: 2.58 µg/mL | IC50 [35]: 9.41 µg/mL | IC50 [36]: > 50 µg/mL | IC50 [37]: > 50 µg/mL | IC50 [38]: 17.6 µg/mL | IC50 [39]: 4.73 µg/mL | IC50 [40]: > 50 µg/mL | IC50 [41]: > 50 µg/mL | IC50 [42]: 2.06 µg/mL | IC50 [43]: 0.149 µg/mL | IC50 [44]: 0.171 µg/mL | IC50 [45]: > 50 µg/mL

4980_N08 (PGT-143) (antibody)
IC50 [1]: 17.3 µg/mL | IC50 [2]: > 50 µg/mL | IC50 [3]: 25.9 µg/mL | IC50 [4]: 0.797 µg/mL | IC50 [5]: > 50 µg/mL | IC50 [6]: > 50 µg/mL | IC50 [7]: > 50 µg/mL | IC50 [8]: 0.002 µg/mL | IC50 [9]: 0.004 µg/mL | IC50 [10]: 0.162 µg/mL | IC50 [11]: > 50 µg/mL | IC50 [12]: > 50 µg/mL | IC50 [13]: 0.854 µg/mL | IC50 [14]: 12.4 µg/mL | IC50 [15]: 2.02 µg/mL | IC50 [16]: 1.11 µg/mL | IC50 [17]: 0.377 µg/mL | IC50 [18]: > 50 µg/mL | IC50 [19]: > 50 µg/mL | IC50 [20]: > 50 µg/mL | IC50 [21]: 0.002 µg/mL | IC50 [22]: 0.145 µg/mL | IC50 [23]: 0.016 µg/mL | IC50 [24]: 14 µg/mL | IC50 [25]: 1.56 µg/mL | IC50 [26]: > 50 µg/mL | IC50 [27]: 0.148 µg/mL | IC50 [28]: > 50 µg/mL | IC50 [29]: > 50 µg/mL | IC50 [30]: > 50 µg/mL | IC50 [31]: 0.385 µg/mL | IC50 [32]: 0.236 µg/mL | IC50 [33]: 0.01 µg/mL | IC50 [34]: 0.103 µg/mL | IC50 [35]: 0.395 µg/mL | IC50 [36]: > 50 µg/mL | IC50 [37]: > 50 µg/mL | IC50 [38]: 0.336 µg/mL | IC50 [39]: 0.219 µg/mL | IC50 [40]: 0.598 µg/mL | IC50 [41]: > 50 µg/mL | IC50 [42]: 0.05 µg/mL | IC50 [43]: 0.007 µg/mL | IC50 [44]: 0.001 µg/mL | IC50 [45]: > 50 µg/mL
